The results in this text go back to IntAct's records for PubMed 18171471.

The labels stand for the following.
B1: Focal adhesion kinase 1 (Gallus gallus (Chicken)), Q00944 (parent)
chain: MAAAYLDPNLNHTPSSSAKTHLGTGMERSPGAMERVLKVFHYFENSSEPTTWASIIRHGDATDVRGIIQKIVDCHKVKNVACYGLRLSHLQSEEVHWLHLDMGVSNVREKFELAHPPEEWKYELRIRYLPKGFLNQFTEDKPTLNFFYQQVKNDYMLEIADQVDQEIALKLGCLEIRRSYGEMRGNALEKKSNYEVLEKDVGLRRFFPKSLLDSVKAKTLRKLIQQTFRQFANLNREESILKFFEILSPVYRFDKECFKCALGSSWIISVELAIGPEEGISYLTDKGANPTHLADFNQVQTIQYSNSEDKDRKGMLQLKIAGAPEPLTVTAPSLTIAENMADLIDGYCRLVNGATQSFIIRPQKEGERALPSIPKLANNEKQGVRSHTVSVSETDDYAEIIDEEDTYTMPSTRDYEIQRERIELGRCIGEGQFGDVHQGIYMSPENPAMAVAIKTCKNCTSDSVREKFLQEALTMRQFDHPHIVKLIGVITENPVWIIMELCTLGELRSFLQVRKFSLDLASLILYAYQLSTALAYLESKRFVHRDIAARNVLVSATDCVKLGDFGLSRYMEDSTYYKASKGKLPIKWMAPESINFRRFTSASDVWMFGVCMWEILMHGVKPFQGVKNNDVIGRIENGERLPMPPNCPPTLYSLMTKCWAYDPSRRPRFTELKAQLSTILEEEKLQQEERMRMESRRQVTVSWDSGGSDEAPPKPSRPGYPSPRSSEGFYPSPQHMVQPNHYQVSGYSGSHGIPAMAGSIYPGQASLLDQTDSWNHRPQEVSAWQPNMEDSGTLDVRGMGQVLPTHLMEERLIRQQQEMEEDQRWLEKEERFLVMKPDVRLSRGSIEREDGGLQGPAGNQHIYQPVGKPDHAAPPKKPPRPGAPHLGSLASLNSPVDSYNEGVKIKPQEISPPPTANLDRSNDKVYENVTGLVKAVIEMSSKIQPAPPEEYVPMVKEVGLALRTLLATVDESLPVLPASTHREIEMAQKLLNSDLAELINKMKLAQQYVMTSLQQEYKKQMLTAAHALAVDAKNLLDVIDQARLKMISQSRPH

In this test the parent is B1. The following applies: with paxi_chick PXN.
On to I937A, for which the “effect of a mutation on the interaction” value is “decreasing interaction”.

For E949A;K956A;R963A, the “effect of a mutation on the interaction” value is on record as “decreasing interaction”.
